Patent US20220305006

Tests used:
[1] = target: BACE inhibitor 1 (statine BACE inhibitor 1)
[2] = target: T1, Peptide 65005
T1 chain: NLTTYPYFIPL

[3] = target: T2, Peptide 65007
T2 chain: ALYPYFLPISAK

[4] = target: recombinant sAPPα, human, amino acids 19-613, P05067
recombinant sAPPα, human, amino acids 19-613, P05067, sequence (P05067 19-613): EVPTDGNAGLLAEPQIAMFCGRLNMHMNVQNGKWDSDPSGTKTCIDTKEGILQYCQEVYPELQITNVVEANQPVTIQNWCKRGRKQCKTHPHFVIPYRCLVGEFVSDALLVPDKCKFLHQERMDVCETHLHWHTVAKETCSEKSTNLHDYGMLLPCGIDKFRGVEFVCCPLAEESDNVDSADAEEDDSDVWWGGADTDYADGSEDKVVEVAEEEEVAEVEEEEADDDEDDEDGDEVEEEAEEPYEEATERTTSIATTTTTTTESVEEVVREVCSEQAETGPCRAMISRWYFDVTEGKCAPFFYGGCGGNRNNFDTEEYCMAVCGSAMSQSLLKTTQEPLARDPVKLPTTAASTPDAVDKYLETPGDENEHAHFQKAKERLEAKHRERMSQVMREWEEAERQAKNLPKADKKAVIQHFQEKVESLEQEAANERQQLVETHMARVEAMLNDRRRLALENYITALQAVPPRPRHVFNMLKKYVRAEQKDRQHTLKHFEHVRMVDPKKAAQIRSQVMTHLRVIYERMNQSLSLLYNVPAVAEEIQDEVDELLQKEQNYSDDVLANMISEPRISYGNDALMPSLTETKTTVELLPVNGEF

B1: BACE in mouse primary cortical neurons (protein)
chain: ETDEESEEPGRRGSFVEMVDNLRGKSGQGYYVEMTVGSPPQTLNILVDTGSSNFAVGAAPHPFLHRYYQRQLSSTYRDLRKGVYVPYTQGKWEGELGTDLVSIPHGPNVTVRANIAAITESDKFFINGSNWEGILGLAYAEIARPDDSLEPFFDSLVKQTHIPNIFSLQLCGAGFPLNQTEALASVGGSMIIGGIDHSLYTGSLWYTPIRREWYYEVIIVRVEINGQDLKMDCKEYNYDKSIVDSGTTNLRLPKKVFEAAVKSIKAASSTEKFPDGFWLGEQLVCWQAGTTPWNIFPVISLYLMGEVTNQSFRITILPQQYLRPVEDVATSQDDCYKFAVSQSSTGTVMGAVIMEGFYVVFDRARKRIGFAVSACHVHDEFRTAAVEGPFVTADMEDCGYNIPQTDESTLMTIAYVMAAICALFMLPLCLMVCQWRCLRCLRHQHDDFADDISLLK
For B1, the “CHL1 and L1CAM cleavage (uncleaved substrate/α-tubulin OD ratio, immunoblot), 10 µM, 24 hours” value [1] was “only BACE Inh 4 (blue) clearly inhibited cleavage; BACE Inh 1, peptides 65005 and 65007 and sAPPα did not”, the “uncleaved neurofascin (immunoblot), 10 µM, 24 hours” value [1] was “Only BACE Inh 4 and BACE Inh 1 treatment resulted in an increase of uncleaved NrCAM or neurofascin, respectively” and the “CHL1 and L1CAM cleavage (uncleaved substrate/α-tubulin OD ratio, immunoblot), 10 µM, 24 hours” value [2] was “only BACE Inh 4 (blue) clearly inhibited cleavage; BACE Inh 1, peptides 65005 and 65007 and sAPPα did not”. For the same protein, the “uncleaved NrCAM and neurofascin (immunoblot), 10 µM, 24 hours” value [2] was “none of the other inhibitors increased the amount of uncleaved NrCAM or neurofascin substrate”, the “CHL1 and L1CAM cleavage (uncleaved substrate/α-tubulin OD ratio, immunoblot), 10 µM, 24 hours” value [3] was “only BACE Inh 4 (blue) clearly inhibited cleavage; BACE Inh 1, peptides 65005 and 65007 and sAPPα did not” and the “uncleaved NrCAM and neurofascin (immunoblot), 10 µM, 24 hours” value [3] was “none of the other inhibitors increased the amount of uncleaved NrCAM or neurofascin substrate”. The “CHL1 and L1CAM cleavage (uncleaved substrate/α-tubulin OD ratio, immunoblot), 1 µM, 24 hours” value [4] was “only BACE Inh 4 (blue) clearly inhibited cleavage; BACE Inh 1, peptides 65005 and 65007 and sAPPα did not” and the “uncleaved NrCAM and neurofascin (immunoblot), 1 µM, 24 hours” value [4] was “none of the other inhibitors increased the amount of uncleaved NrCAM or neurofascin substrate”.
